From publication doi:10.1101/2021.10.01.462756 (bioRxiv, 2021)

T1: Rad17 (S. cerevisiae, UniProt P48581 1-401)
T1 sequence: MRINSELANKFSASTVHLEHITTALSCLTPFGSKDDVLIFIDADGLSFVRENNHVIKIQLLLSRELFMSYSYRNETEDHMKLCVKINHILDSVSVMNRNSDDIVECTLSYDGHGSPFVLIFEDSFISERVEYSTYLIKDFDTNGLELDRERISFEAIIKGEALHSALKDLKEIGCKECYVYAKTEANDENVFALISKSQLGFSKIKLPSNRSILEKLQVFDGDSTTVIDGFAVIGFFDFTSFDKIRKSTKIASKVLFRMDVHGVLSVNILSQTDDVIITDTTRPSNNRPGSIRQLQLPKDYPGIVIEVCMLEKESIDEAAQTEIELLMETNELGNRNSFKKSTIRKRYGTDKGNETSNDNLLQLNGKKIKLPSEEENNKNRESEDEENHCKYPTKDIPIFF

T2: 9-1-1 clamp (Ddc1–Mec3–Rad17) (S. cerevisiae, UniProt Q08949;Q02574;P48581)
T2 sequence 1: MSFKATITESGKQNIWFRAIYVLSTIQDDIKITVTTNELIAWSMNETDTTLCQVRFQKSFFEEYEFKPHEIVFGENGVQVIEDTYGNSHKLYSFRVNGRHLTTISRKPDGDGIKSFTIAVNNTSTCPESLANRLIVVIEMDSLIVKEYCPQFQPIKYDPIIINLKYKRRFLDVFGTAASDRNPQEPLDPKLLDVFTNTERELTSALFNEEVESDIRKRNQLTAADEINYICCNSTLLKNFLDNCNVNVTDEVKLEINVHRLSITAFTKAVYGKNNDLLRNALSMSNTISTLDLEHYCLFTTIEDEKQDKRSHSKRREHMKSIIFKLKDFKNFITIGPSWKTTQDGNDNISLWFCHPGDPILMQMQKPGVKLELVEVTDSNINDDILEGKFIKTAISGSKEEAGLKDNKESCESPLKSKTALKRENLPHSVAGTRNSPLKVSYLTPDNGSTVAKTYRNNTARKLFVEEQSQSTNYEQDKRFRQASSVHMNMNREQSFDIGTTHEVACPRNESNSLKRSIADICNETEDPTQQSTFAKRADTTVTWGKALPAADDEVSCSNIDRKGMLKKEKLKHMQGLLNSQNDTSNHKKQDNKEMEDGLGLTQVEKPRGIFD
T2 sequence 2: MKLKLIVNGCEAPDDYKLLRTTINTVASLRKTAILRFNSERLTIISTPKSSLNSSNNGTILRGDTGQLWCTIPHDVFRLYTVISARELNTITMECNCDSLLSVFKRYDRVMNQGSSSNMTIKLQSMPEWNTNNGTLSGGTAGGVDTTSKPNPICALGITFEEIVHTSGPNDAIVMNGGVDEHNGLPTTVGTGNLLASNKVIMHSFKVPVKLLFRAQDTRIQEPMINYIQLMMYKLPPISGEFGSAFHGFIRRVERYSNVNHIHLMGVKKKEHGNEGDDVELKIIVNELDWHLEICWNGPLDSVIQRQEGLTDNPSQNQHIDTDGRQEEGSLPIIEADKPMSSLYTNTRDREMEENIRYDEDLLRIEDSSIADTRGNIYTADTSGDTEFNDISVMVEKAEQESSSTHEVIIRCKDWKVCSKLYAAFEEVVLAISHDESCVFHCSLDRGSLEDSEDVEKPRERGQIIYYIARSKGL
T2 sequence 3: T1 sequence

B1: Rfc4 (natural protein)
chain: MSKTLSLQLPWVEKYRPQVLSDIVGNKETIDRLQQIAKDGNMPHMIISGMPGIGKTTSVHCLAHELLGRSYADGVLELNASDDRGIDVVRNQIKHFAQKKLHLPPGKHKIVILDEADSMTAGAQQALRRTMELYSNSTRFAFACNQSNKIIEPLQSRCAILRYSKLSDEDVLKRLLQIIKLEDVKYTNDGLEAIIFTAEGDMRQAINNLQSTVAGHGLVNADNVFKIVDSPHPLIVKKMLLASNLEDSIQILRTDLWKKGYSSIDIVTTSFRVTKNLAQVKESVRLEMIKEIGLTHMRILEGVGTYLQLASMLAKIHKLNNKA
B2: Rad24 (natural protein)
chain: MDSTNLNKRPLLQYSLSSLGSQITKWSSSRPTSPVRKARSTENDFLSKQDTSSILPSINDDGGEQWYEKFKPNCLEQVAIHKRKLKDVQEALDAMFLPNAKHRILLLSGPSGCSKSTVIKELSKILVPKYRQNSNGTSFRSTPNEHKVTEFRGDCIVNDLPQMESFSEFLKGARYLVMSNLSLILIEDLPNVFHIDTRRRFQQLILQWLYSSEPLLPPLVICITECEIPENDNNYRKFGIDYTFSAETIMNKEILMHPRLKRIKFNPINSTLLKKHLKFICVQNMKMLKEKNKWNKRQEVIDYIAQETGDIRSAITTLQFWATSSGSLPISTRESTISYFHAIGKVIHGSHSTNNDNEMINNLFENSNNLLSKEDFKLGILENYNTFNKGEFSISDASSIVDCLSECDNMNGLPESNEYGLREVRKTFRNISKQGHNHGTVYFPREWKVRKLQNSFKVQAEDWLNVSLYKYNAVHSFRNITLEFGYYAPLIRKCQSYKKKYILYYLKNLPSGSSGPKQTMDKFSDIMKVENGIDVVDRIGGPIEALSVEDGLAPLMDNDSNNCDHLEDQKKERDRRLRMLIDQYERNVMMANDDLEDEETSFNDDPIVDSDSDNSNNIGNETFGRSDEDESLCEILSQRQPRKAPVISESLSDSDLEIL
B3: His-PK-Mec3 (natural protein)
chain: T2 sequence 2
B4: Rfc3 (natural protein)
chain: MSTSTEKRSKENLPWVEKYRPETLDEVYGQNEVITTVRKFVDEGKLPHLLFYGPPGTGKTSTIVALAREIYGKNYSNMVLELNASDDRGIDVVRNQIKDFASTRQIFSKGFKLIILDEADAMTNAAQNALRRVIERYTKNTRFCVLANYAHKLTPALLSRCTRFRFQPLPQEAIERRIANVLVHEKLKLSPNAEKALIELSNGDMRRVLNVLQSCKATLDNPDEDEISDDVIYECCGAPRPSDLKAVLKSILEDDWGTAHYTLNKVRSAKGLALIDLIEGIVKILEDYELQNEETRVHLLTKLADIEYSISKGGNDQIQGSAVIGAIKASFENETVKANV
B5: Ddc1 (natural protein)
chain: T2 sequence 1
B6: Rfc5 (natural protein)
chain: MSLWVDKYRPKSLNALSHNEELTNFLKSLSDQPRDLPHLLLYGPNGTGKKTRCMALLESIFGPGVYRLKIDVRQFVTASNRKLELNVVSSPYHLEITPSDMGNNDRIVIQELLKEVAQMEQVDFQDSKDGLAHRYKCVIINEANSLTKDAQAALRRTMEKYSKNIRLIMVCDSMSPIIAPIKSRCLLIRCPAPSDSEISTILSDVVTNERIQLETKDILKRIAQASNGNLRVSLLMLESMALNNELALKSSSPIIKPDWIIVIHKLTRKIVKERSVNSLIECRAVLYDLLAHCIPANIILKELTFSLLDVETLNTTNKSSIIEYSSVFDERLSLGNKAIFHLEGFIAKVMCCLD
B7: Rfc2 (natural protein)
chain: MFEGFGPNKKRKISKLAAEQSLAQQPWVEKYRPKNLDEVTAQDHAVTVLKKTLKSANLPHMLFYGPPGTGKTSTILALTKELYGPDLMKSRILELNASDERGISIVREKVKNFARLTVSKPSKHDLENYPCPPYKIIILDEADSMTADAQSALRRTMETYSGVTRFCLICNYVTRIIDPLASRCSKFRFKALDASNAIDRLRFISEQENVKCDDGVLERILDISAGDLRRGITLLQSASKGAQYLGDGKNITSTQVEELAGVVPHDILIEIVEKVKSGDFDEIKKYVNTFMKSGWSAASVVNQLHEYYITNDNFDTNFKNQISWLLFTTDSRLNNGTNEHIQLLNLLVKISQL

Key:
Assay in all cases: cryo-EM structure
Rad24 = molecular target: B2
Rad17 = molecular target: T1, Rad17
[1] = molecular target: T2, 9-1-1 clamp (Ddc1–Mec3–Rad17)
Ddc1 = molecular target: B5

B1: binds (Rad24); binds (Rad17).

B2: binds [1].

B3: binds (Ddc1).

B4: binds (Rad17).

B5: binds (Rad24).

B6: binds (Rad24); binds [1].

B7: binds (Ddc1).
